Consider one protein from publication PMC9633789 (Nature Communications, 2022).

For orientation: stoichiometry N means the number of molecules, sites or subunits per partner or assembly.

This data set deals with the molecule itself. The experiment in a line: SEC; Superose 6 Increase 10/300 GL; 25 mM HEPES-KOH pH 8.0, 100 mM NaCl, 5 mM MgCl2, 1 mM DTT, 10% sucrose; step of the purification of His-p97. For orientation: Size exclusion chromatography separates by hydrodynamic size, large species first.

B1: His-p97 (recombinant Xenopus p97) (enzyme, UniProt P23787 1-805, looked up)
chain: MASGSDTKSDDLSTAILKQKSRPNRLIVDESINEDNSMVSLSQAKMDELQLFRGDTVLLKGKKRREAVCIVLSDDTCSDEKIRMNRVVRNNLRVRLGDVISIQPCPDVKYGKRVHVLPIDDTVEGITGNLFEVYLKPYFLEAYRPIRKGDIFLVRGGMRAVEFKVVETDPSPYCIVAPDTVIHCEGEPIKREDEEESLNEVGYDDIGGCRKQLAQIKEMVELPLRHPALFKAIGVKPPRGILLYGPPGTGKTLIARAVANETGAFFFLINGPEIMSKLAGESESNLRKAFEEAEKNAPAIIFIDELDAIAPKREKTHGEVERRIVSQLLTLMDGLKQRAHVIVMAATNRPNSIDPALRRFGRFDREVDIGIPDSTGRLEILQIHTKNMKLSDDVDLEQVANETHGHVGADLAALCSEAALQAIRKKMDLIDLEDETIDAEVMNSLAVTMDDFRWALSQSNPSALRETVVEVPQVTWEDIGGLEDVKRELQELVQYPVEHPDKFLKFGMTPSKGVLFYGPPGCGKTLLAKAIANECQANFISIKGPELLTMWFGESEANVREIFDKARQAAPCVLFFDELDSIAKARGGNIGDGGGAADRVINQILTEMDGMSIKKNVFIIGATNRPDIIDPAILRPGRLDQLIYIPLPDEKSRMAILKANLRKSPVAKDVDVDFLAKMTNGFSGADLTEICQRACKLAIRESIENEIRRERDRQTNPSAMEVEEDDPVPEIRRDHFEEAMRFARRSVSDNDIRKYEMFAQTLQQSRGFGSFRFPAGGQSGAGPSPGAGGGSGGGHFTEEDDDLYG
notes: p97, Xenopus; source: E. coli Rosetta 2 (DE3), purified (HisTrap HP, Superose 6 Increase)
Take B1: the “stoichiometry N” value is 6.
